Source: the DeepSol protein solubility set

Assay: soluble on expression in E. coli; label from the status in PepcDB or PDB records
For “MMGSSSQELQTALTDVSKTCHHLWEENKDLQGRFVNELGELQRLQMVIAQLEQQQRLENVFTVKQQMTELQKRAATLYEHLTQKRNDIVIKLNDGTNFATMLQTQLIGEKLFSWKNAQKLAQIGMPFDNREQLLDEIQIEFEFLADQNWQLNMFSCWMLDLLRRAPQLNDGLAQATIGKLTAITEQLNKLLFMLVSQSFIVSVQPEPVLKTQHKFVTEVRLLIGDKLGIRQHLVNTNVSVKIIAEDEAKQLSVDYDAHKEIRNNKTVGTISNDFEKLTMNERGHLAAKFNNSKLTRIAHRKPPPKGASDLKCAASMQAATDQKYALLFFITPFQMGNLSKEEQFDVWTLSLPIMVTVHGSQDCDAQVAILWHRAFASISRNPNTTDVTAVTWDNLAIMLRNKFSLFTGARRPLSDSDLAYLSEKMLMPNVADQKPITFHRFAKQAMRDDLPFSFWEWFFSIMQLIKQKLLKFWDEGWCIGFISKNDASQSMMMCQHSSFLLRFSDSQTGAVSIGFVCEEADGQKIPFHLAPFTIKDLDQLSLASRIASCPQLKDIRYMYPAIDKEEMLRFFESEERHRVGGGDSPTGYIQSEIVMVAKTNGNFRRMSNAPSMFGADSPSPLSVQSKLDWSPGEVHQNHMMEMSDELGQILTVSDMSGDVETLLGPAFKNNITNYNPHDGNHQHNLHFVDMSQQGMMQQHHNQFYPS”, the “soluble on expression in E. coli” value was “not soluble”.
With “MGSDKIHHHHHHMTVDPSHTIPVSVTGAFCSLNCPHCGAHYLRHMISVDEIPALVKKGYRSFLISGGMLPDGSIPFEKYYEHLKELKESHGLLYNFHVGFQKSKVAKELADVVSMDFFGDETVLKSIYGLALTPQEILDIAHFYENVVFHITVGITGGKITHEEKALEILSQETDTVVLNVFIPTPGTKFGKSFPPDLQEVVKLFEKARKLFKRVILGCMQPRGEYRKKLQSELKDLVDVITKPVGGTGEFKGCCAFIGRG” the “soluble on expression in E. coli” value was “not soluble”.
With “MAGDPMKSPCILLIIVCTLSLTGCASTKQADSDSSLGKAQQTLDSLYQHYSAKDSYLLRENYPFNEQYKVTYLASENQTNMPNQFSYLWPYSGTFSAVNSLLEATHDKKYQQLLEKQVLPGLEEYFDTERTPIAYSSYIRTAPTSDRFYDDNIWVGIDFIDIYQITKEKKYLDKAQLIWNFIESGTDSLLGDGIYWCEQKKESKNTCSNAPGSVFALKLFKATNDSLYFKRGKELYKWTQKNLQDSTDYLYFDNIRLDGKIGKAKFAYNSGQMMQSAALLYQLTKNPDYLKDAQSIAKECYNYFFTDFTTDTGESLKMLKQGNIWFTAVMLRGFIELYQLDQNKTFIDAFNQCLSYAWDNARDENGLFSTDLTGNNNNEKKWLLTQAAMVEMYSRLATIQLEHHHHHH” the “soluble on expression in E. coli” value was “soluble”.
In the case of “MVTEKTLRTCEQGHEYYKSSDCPTCPVCEKERKPKESFLSLLSAPARRALEHRGIQTVEELSKYSEKEILKLHGMGPASLPKLKKVLEESWLSFK”, the “soluble on expression in E. coli” value is reported as “not soluble”.
For “MGSDKIHHHHHHMSKLIVPQWPQPKGVAACSSTRIGGVSLPPYDSLNLGAHCGDNPDHVEENRKRLFAAGNLPSKPVWLEQVHGKDVLKLTGEPYASKRADASYSNTPGTVCAVMTADCLPVLFCNRAGTEVAAAHAGWRGLCAGVLEETVSCFADNPENILAWLGPAIGPRAFEVGGEVREAFMAVDAKASAAFIQHGDKYLADIYQLARQRLANVGVEQIFGGDRCTYTENETFFSYRRDKTTGRMASFIWLI”, the “soluble on expression in E. coli” value was “soluble”.
With “SLRITRIRLYKTDLPYVDGSYGWGAGNAITVARASVVVIDTDAGLQGCGEFTPCGENYMIAHSEGVDAFARLAAPQLLGQDPRQVARMERLMDHLVQGHGYAKAPFDAAFWDILGQATGQPVWMLLGGKLCDGAPMYRVAPQRSEAETRAELARHRAAGYRQFQIKVGADWQSDIDRIRACLPLLEPGEKAMADANQGWRVDNAIRLARATRDLDYILEQPCRSYEECQQVRRVADQPMKLDECVTGLHMAQRIVADRGAEICCLKISNLGGLSKARRTRDFLIDNRMPVVAEDSWGGEIASAAVAHFAASTPEEFLINSTDLMNYNTRSTGLGGPTVHQGRLYASDTPGLGVTPDFNSLGAPVADWALP” the “soluble on expression in E. coli” value was “not soluble”.
In the case of “MAHHHHHHMNNSKENDSVSKLSFKNKNIKLIKVPKFVSNKWLQYNNKDIVGLLGCNNNNNNDSEITELYVQKDDSDNVKKLRCNKNNTVNTYILKQNVIKLKSTNKSVSNSAGTLNNKSNDYTNTNKGKNTMNNLSKDNSDKHKEFDYVVCADLIKTCDYTYSFLPTLDQDYSSILKERHYKTNVKKERFTIIETRNEENMDATHTLFKYYTSEDKLNNESKDKNMKNNKRLFTDNDNLNTVSHSTSKQKAKQSKKMHVFDLDKAKISIFKIFEREGQNGVPFSFFTKSFNIPANHIKGILDEIAIKGKRDTDKKTVYFLKNCIG”, the “soluble on expression in E. coli” value is reported as “not soluble”.
For “MKKTYVLDTNVLLQDPHAIFAFQDNEVVIPAVVLEEVDSKKRYMDEIGRNARHFSKLIDQLRGLGKLHEGVPLENGGKLRIELNHKSYEKVKDSFAEMTNDNRIIAVALNLSLEETEKPNGNQVILVSKDALVRVKADALRLKAEDFLNDRVIQYDRGY”, the “soluble on expression in E. coli” value was “not soluble”.
For “MNRWQGIIKQYKKYLPVDENTPIVTLYEGNTPLIEADNLARAIGFKGKIYLKYEGLNPTGSFKDRGMTLAISKAVEAGKRAVICASTGNTSASAAAYAARAGLRAYVLLPKGAVAIGKLSQAMIYGAKVLAIQGTFDDALNIVRKIGENFPVEIVNSVNPYRIEGQKTAAFEICDTLGEAPDYHFIPVGNAGNITAYWKGFKIYYEEGKITKLPRMMGWQAEGAAPIVKGYPIKNPQTIATAIKIGNPYSWKSALKAAQESGGKIDAVSDSEILYAYKLIASTEGVFCEPASAASVAGLIKLVREGFFKGGEVVTCTLTGNGLKDPDTAIKVCEEPITVPPDFDEVVKVLGF”, the “soluble on expression in E. coli” value was “soluble”.
With “GMSLIPEIDAFLGCPTPDAWIEAALADQETLLIDHKNCEFKAASTALSLIAKYNTHLDLINMMSRLAREELVHHEQVLRLMKRRGVPLRPVSAGRYASGLRRLVRAHEPVKLVDTLVVGAFIEARSCERFAALVPHLDEELGRFYHGLLKSEARHYQGYLKLAHNYGDEADIARCVELVRAAEMELIQSPDQELRFHSGIPQALAA” the “soluble on expression in E. coli” value was “soluble”.
For “MNLMLCCTPLQVLIARKIIELHPNEQFFGVMFGGVWDKKRTLYASKLAEVCSDSMNIDTGKDLKGFDFLKLMRQLKNKITHKGFDKVFLANLNSLWLQTYLSHVSFKELYTFDDGSDNIFPHPNLLREPGTFKYKLIKAFIGDKYSVNKLFKKIKKHYTVYPNYKNIVSNIEPISLWDNQIDCEIDGEVSFFIGQPLLNTKEENISLIKKLKDQIPFDYYFPHPAEDYRVDGVNYVESELIFEDYVFKHLSNKKIIIYTFFSSVAFNLLSHPNVEIRFIRTSIPRWQFCYDSFPDLGLTIYKEI”, the “soluble on expression in E. coli” value was “not soluble”.
With “MAKRDYYEVLGVSRDAEEREIKKAYKRLAMKFHPDRQSEDKNAEEKFKEAKEAYEILTDAQKRAAYDQYGHAAFEQGGMGGGGFGGGGGGADFSDIFGDVFGDIFGGGRRQQRASRGSDLRYNMDLTLEEAVRGVTKEIRIPTLDECDVCHGSGAKPGSSPVTCPTCHGAGQVQMRQGFFTVQQACPHCHGRGQIIKDPCNKCHGHGRVEKSKTLSVKIPAGVDTGDRIRLSGEGEAGEHGAPSGDLYVQVQVKAHPIFEREGNNLYCEVPINFAMAALGGEIEVPTLDGRVKLKIPAETQTGKMFRMRGKGVKSVRGGSQGDLLCRVVVETPVSLSEKQKQLLRELEESFVGAAGEKNSPRAKSFLDGVKKFFDDLTR” the “soluble on expression in E. coli” value was “not soluble”.
For “MEDRREALISKLMNMLVENGFSVSGTGFQPVATFDIVARRDVERYILKVLYNIDTLKQSTAYQLIKLAKLLRATAAIIGERTGNGQLEDGVVYYRHGVPISSVNTFESYLNGERPYIYSGPGGFYVRINGELLRERRNELNLSIGNISSYLGVSRRSVSLYENGSAATIDIFIRLRNILKADIVDHIDLFRINSTEINFEEKISDEYIARIIWLLQKYGLDTRPIFKVPFDIVAKDSDEISLIAALIGDAPEPERVRILKKISDVFEDDAFLVSKSNTYRESIGGCAVLTISDLESIEDKDALIGKIEKRAK”, the “soluble on expression in E. coli” value was “not soluble”.
In the case of “MGSDKIHHHHHHMIHLSNITKQHGAQVLFRDASFQILPGTRTGLVGPNGAGKTTIFRIITGEEEVDAGEMTCAKKTTVGYFSQDVGEMAGRSALEEVMAGSAETVRLAAELKEMEAAMCEPQSDDEMAALLERYGAAQEEFEHRGGYDLDTRAQTVLTGLGIGPDRFHHPVESFSGGWKMRIALAKILTLKPDVLLLDEPTNHLDVESIIWLEEWLANDFDGALLMTSHDRDFMNRIVTRIIEVANRTVTTYGGNYDFYERERDIRREQLLASHKRQQEMLAKEEEFIARFAARASHAAQVQSRVKKLEKIERIEIPAEERMVRFEFSEPPRSGEDVVVMENLGKVWQTPDGGEKPVFGGVSGIIRRLNKIAVVGVNGAGKSTFLKVLAGQTEPTTGTVTIGANVELGYFSQHAMEVLDPKKTVFETVQEAMPLANIGVIRNLLAAFLFQGDTVDKRVENLSGGEKSRVVLATLLARPVNFLVLDEPTNHLDIRSREILLDALRNFAGTVVIVSHDRHFLRSLVDRVFEVDHGEMRVYEGDYSYYLRKSHELHGLP”, the “soluble on expression in E. coli” value is reported as “not soluble”.
With “MSLKSYILLIKCKTDTTIRTKSKKFLIRKGVYAYVGSCGRSCGRRVSRHFNKEKSNYHWHIDYLTKACEPIGVFVMNHVGEKELALLFSKNNAFIEEFGSSDDKDAKSHLFIVNDLQELCSTVCDKSREREGHHHHHH” the “soluble on expression in E. coli” value was “soluble”.
With “MNVEINGKSLELSFGFKFLREIDNRLGLKVEQASIGQGVSMLPVGLESGNPVVIGEVLIASTSHLKKQAITINNIDEALDEIAENIGLEEFGSDILTELGKRPMTRNLVEVVETEEKPAEALEHHHHHH” the “soluble on expression in E. coli” value was “not soluble”.
In the case of “MSLKKLISGIIAVAMALSLAACQKETKVISLSGKTMGTTYHVKYLDDGSITATSEKTHEEIEAILKDVNAKMSTYKKDSELSRFNQNTQVNTPIEISADFAKVLAEAIRLNKVTEGALDVTVGPVVNLWGFGPEKRPEKQPTPEQLAERQAWVGIDKITLDTNKEKATLSKALPQVYVDLSSIAKGFGVDQVAEKLEQLNAQNYMVEIGGEIRAKGKNIEGKPWQIAIEKPTTTGERAVEAVIGLNNMGMASSGDYRIYFEENGKRFAHEIDPKTGYPIQHHLASITVLAPTSMTADGLSTGLFVLGEDKALEVAEKNNLAVYLIIRTDNGFVTKSSSAFKKLTETKEEGGSHHHHHH”, the “soluble on expression in E. coli” value is reported as “soluble”.
With “MSLTSKPYIMGVDIGTSSTKAVLFNQRGEVIFRQATHYELITDETGKAEESPTEIFDAVLTSIQAVMKNINTEELAGISFSSAMHSLIMVGSNGELLTECITWADGRSSETLEKVKRDNYLFQLYEATGTPIHPMSPFAKICWLKEEKPTLFKRTEKFVDIKSYILYRLFGVWVMDESLASGTGLYNIMEHDWEFEAMEIVKLTPDFLPKVVPETYQLAGVKKEYAELMGIPENLPFIIGGSDGALANIGIQATGQNDVTITVGTSGAVRKLTDQFQIDSRGRTFCYGAGDGYFIAGGAVNNGGKVVEWGLQQFGSEAEISRRDFASFIAKIEEVPPGAAGLLFQPYLLGERAPFWTNDIRGGFVGLTINHTKAHFIRAILEGVAFNLAEVYEAVSAPDDIIYVTGGISAHDAWCKLLADILNREIRVPHTIEGSSLGAAIIGMRSLGILKDLNLKHTLPIKAVYHPSENVLKYAELRLIFKQVTTQLMSSYSQLNSWQKKFDINSEGHHHHHH” the “soluble on expression in E. coli” value was “soluble”.
With “MSLIAPLLVIEDEPAVMSFVRRALERGGYTVVGANSGMQALELLKGQQFQGIISDMRTPGNVDGGGVYHWIREHRPELANRIVFITGDIVNEETVAVLKETGAPCVEKPFRVQDLIATVENTIGKPQQETEGHHHHHH” the “soluble on expression in E. coli” value was “soluble”.
